Here are results for one molecule from paper PMC9848366, “Crystal structure of vaccinia virus G3/L5 sub-complex reveals a novel fold with extended inter-molecule interactions conserved among orthopoxviruses” (Emerging Microbes & Infections, 2023).

For this test, the target named is T1, VACV G3-ectodomain, tag-free (G3-Ecto) (vaccinia virus (VACV), UniProt P68458 22-111).
T1 sequence: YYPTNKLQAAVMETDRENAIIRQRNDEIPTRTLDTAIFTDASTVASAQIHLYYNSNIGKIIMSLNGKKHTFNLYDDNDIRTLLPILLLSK
Description: crystal structure. The conditions noted are these: both partners purified.

B1: VACV L5-ectodomain, tag-free (L5-Ecto) (domain or fragment)
chain: NMFFMPKRKIPDPIDRLRRANLACEDDKLMIYGLPWMTTQTSALSINSKPIVYKDCAKLLRSINGSQPVSLNDVLRR
For B1, the binding result is on record as “binds”.
